Laboratory results as given in patent publication US20240190962A1 (IMMUNOWAKE, published 2024).

B1: Fab-IL-23(WT)-Fc-CD4 Ab (other)
light: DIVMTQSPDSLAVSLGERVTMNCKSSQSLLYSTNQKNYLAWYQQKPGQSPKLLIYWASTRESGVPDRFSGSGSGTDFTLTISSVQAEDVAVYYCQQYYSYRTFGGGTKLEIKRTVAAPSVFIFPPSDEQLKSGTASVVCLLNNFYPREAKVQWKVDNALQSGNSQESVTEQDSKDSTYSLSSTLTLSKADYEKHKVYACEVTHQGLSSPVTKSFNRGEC
heavy 1: QVQLQQSGPEVVKPGASVKMSCKASGYTFTSYVIHWVRQKPGQGLDWIGYINPYNDGTDYDEKFKGKATLTSDTSTSTAYMELSSLRSEDTAVYYCAREKDNYATGAWFAYWGQGTLVTVSSASTKGPSVFPLAPSSKSTSGGTAALGCLVKDYFPEPVTVSWNSGALTSGVHTFPAVLQSSGLYSLSSVVTVPSSSLGTQTYICNVNHKPSNTKVDKKVEPKSCDKTHTCPPCPAPEKKGGPSVFLFPPKPKDTLMISRTPEVTCVVVDVSHEDPEVKFNWYVDGVEVHNAKTKPREEQYNSTYRVVSVLTVLHQDWLNGKEYKCKVSNKALPAPIEKTISKAKGQPREPQVYVLPPSREEMTKNQVSLLCLVKGFYPSDIAVEWESNGQPENRYMTWPPVLDSDGSFFLYSKLTVDKSRWQQGNVFSCSVMHEALHNHYTQKSLSLSPGK
heavy 2: QVQLQQSGPEVVKPGASVKMSCKASGYTFTSYVIHWVRQKPGQGLDWIGYINPYNDGTDYDEKFKGKATLTSDTSTSTAYMELSSLRSEDTAVYYCAREKDNYATGAWFAYWGQGTLVTVSSASTKGPSVFPLAPSSKSTSGGTAALGCLVKDYFPEPVTVSWNSGALTSGVHTFPAVLQSSGLYSLSSVVTVPSSSLGTQTYICNVNHKPSNTKVDKKVEPKSCDKPGSGIWELKKDVYVVELDWYPDAPGEMVVLTCDTPEEDGITWTLDQSSEVLGSGKTLTIQVKEFGDAGQYTCHKGGEVLSHSLLLLHKKEDGIWSTDILKDQKEPKNKTFLRCEAKNYSGRFTCWWLTTISTDLTFSVKSSRGSSDPQGVTCGAATLSAERVRGDNKEYEYSVECQEDSACPAAEESLPIEVMVDAVHKLKYENYTSSFFIRDIIKPDPPKNLQLKPLKNSRQVEVSWEYPDTWSTPHSYFSLTFCVQVQGKSKREKKDRVFTDKTSATVICRKNASISVRAQDRYYSSSWSEWASVPCSGGGGSGGGGSGGGGSGGGGSGRAVPGGSSPAWTQCQQLSQKLCTLAWSAHPLVGHMDLREEGDEETTNDVPHIQCGDGCDPQGLRDNSQFCLQRIHQGLIFYEKLLGSDIFTGEPSLLPDSPVGQLHASLLGLSQLLQPEGHHWETQQIPSLSPSQPWQRLLLRFKILRSLQAFVAVAARVFAHGAATLSPDKTHTCPPCPAPEDEGGPSVFLFPPKPKDTLMISRTPEVTCVVVDVSHEDPEVKFNWYVDGVEVHNAKTKPREEQYNSTYRVVSVLTVLHQDWLNGKEYKCKVSNKALPAPIEKTISKAKGQPREPQVYVYPPSREEMTKNQVSLTCLVKGFYPSDIAVEWESNGQPENNYKTTPPVLDEDGSFALVSKLTVDKSRWQQGNVFSCSVMHEALHNHYTQKSLSLSPGK
notes: copies: 2 + 1 + 1
B2: Fab-IL-23(E59A)-Fc-CD4 Ab (other)
light: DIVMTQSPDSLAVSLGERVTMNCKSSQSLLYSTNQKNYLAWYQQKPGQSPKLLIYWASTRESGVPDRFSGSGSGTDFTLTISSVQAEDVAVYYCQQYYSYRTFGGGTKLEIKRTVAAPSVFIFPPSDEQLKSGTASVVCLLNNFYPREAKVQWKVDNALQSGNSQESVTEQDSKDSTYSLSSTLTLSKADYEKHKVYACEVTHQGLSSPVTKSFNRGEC
heavy 1: QVQLQQSGPEVVKPGASVKMSCKASGYTFTSYVIHWVRQKPGQGLDWIGYINPYNDGTDYDEKFKGKATLTSDTSTSTAYMELSSLRSEDTAVYYCAREKDNYATGAWFAYWGQGTLVTVSSASTKGPSVFPLAPSSKSTSGGTAALGCLVKDYFPEPVTVSWNSGALTSGVHTFPAVLQSSGLYSLSSVVTVPSSSLGTQTYICNVNHKPSNTKVDKKVEPKSCDKTHTCPPCPAPEKKGGPSVFLFPPKPKDTLMISRTPEVTCVVVDVSHEDPEVKFNWYVDGVEVHNAKTKPREEQYNSTYRVVSVLTVLHQDWLNGKEYKCKVSNKALPAPIEKTISKAKGQPREPQVYVLPPSREEMTKNQVSLLCLVKGFYPSDIAVEWESNGQPENRYMTWPPVLDSDGSFFLYSKLTVDKSRWQQGNVFSCSVMHEALHNHYTQKSLSLSPGK
heavy 2: QVQLQQSGPEVVKPGASVKMSCKASGYTFTSYVIHWVRQKPGQGLDWIGYINPYNDGTDYDEKFKGKATLTSDTSTSTAYMELSSLRSEDTAVYYCAREKDNYATGAWFAYWGQGTLVTVSSASTKGPSVFPLAPSSKSTSGGTAALGCLVKDYFPEPVTVSWNSGALTSGVHTFPAVLQSSGLYSLSSVVTVPSSSLGTQTYICNVNHKPSNTKVDKKVEPKSCDKPGSGIWELKKDVYVVELDWYPDAPGEMVVLTCDTPEEDGITWTLDQSSEVLGSGKTLTIQVKAFGDAGQYTCHKGGEVLSHSLLLLHKKEDGIWSTDILKDQKEPKNKTFLRCEAKNYSGRFTCWWLTTISTDLTFSVKSSRGSSDPQGVTCGAATLSAERVRGDNKEYEYSVECQEDSACPAAEESLPIEVMVDAVHKLKYENYTSSFFIRDIIKPDPPKNLQLKPLKNSRQVEVSWEYPDTWSTPHSYFSLTFCVQVQGKSKREKKDRVFTDKTSATVICRKNASISVRAQDRYYSSSWSEWASVPCSGGGGSGGGGSGGGGSGGGGSGRAVPGGSSPAWTQCQQLSQKLCTLAWSAHPLVGHMDLREEGDEETTNDVPHIQCGDGCDPQGLRDNSQFCLQRIHQGLIFYEKLLGSDIFTGEPSLLPDSPVGQLHASLLGLSQLLQPEGHHWETQQIPSLSPSQPWQRLLLRFKILRSLQAFVAVAARVFAHGAATLSPDKTHTCPPCPAPEDEGGPSVFLFPPKPKDTLMISRTPEVTCVVVDVSHEDPEVKFNWYVDGVEVHNAKTKPREEQYNSTYRVVSVLTVLHQDWLNGKEYKCKVSNKALPAPIEKTISKAKGQPREPQVYVYPPSREEMTKNQVSLTCLVKGFYPSDIAVEWESNGQPENNYKTTPPVLDEDGSFALVSKLTVDKSRWQQGNVFSCSVMHEALHNHYTQKSLSLSPGK
notes: copies: 2 + 1 + 1
B3: Fab-IL-23(E59A/F60A)-Fc-CD4 Ab (other)
light: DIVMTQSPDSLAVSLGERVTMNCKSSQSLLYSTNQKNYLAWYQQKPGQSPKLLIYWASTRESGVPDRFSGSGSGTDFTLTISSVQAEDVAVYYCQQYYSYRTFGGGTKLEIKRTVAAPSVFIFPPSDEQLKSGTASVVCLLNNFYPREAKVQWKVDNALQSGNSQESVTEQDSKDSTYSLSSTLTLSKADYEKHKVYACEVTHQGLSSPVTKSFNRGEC
heavy 1: QVQLQQSGPEVVKPGASVKMSCKASGYTFTSYVIHWVRQKPGQGLDWIGYINPYNDGTDYDEKFKGKATLTSDTSTSTAYMELSSLRSEDTAVYYCAREKDNYATGAWFAYWGQGTLVTVSSASTKGPSVFPLAPSSKSTSGGTAALGCLVKDYFPEPVTVSWNSGALTSGVHTFPAVLQSSGLYSLSSVVTVPSSSLGTQTYICNVNHKPSNTKVDKKVEPKSCDKTHTCPPCPAPEKKGGPSVFLFPPKPKDTLMISRTPEVTCVVVDVSHEDPEVKFNWYVDGVEVHNAKTKPREEQYNSTYRVVSVLTVLHQDWLNGKEYKCKVSNKALPAPIEKTISKAKGQPREPQVYVLPPSREEMTKNQVSLLCLVKGFYPSDIAVEWESNGQPENRYMTWPPVLDSDGSFFLYSKLTVDKSRWQQGNVFSCSVMHEALHNHYTQKSLSLSPGK
heavy 2: QVQLQQSGPEVVKPGASVKMSCKASGYTFTSYVIHWVRQKPGQGLDWIGYINPYNDGTDYDEKFKGKATLTSDTSTSTAYMELSSLRSEDTAVYYCAREKDNYATGAWFAYWGQGTLVTVSSASTKGPSVFPLAPSSKSTSGGTAALGCLVKDYFPEPVTVSWNSGALTSGVHTFPAVLQSSGLYSLSSVVTVPSSSLGTQTYICNVNHKPSNTKVDKKVEPKSCDKPGSGIWELKKDVYVVELDWYPDAPGEMVVLTCDTPEEDGITWTLDQSSEVLGSGKTLTIQVKAAGDAGQYTCHKGGEVLSHSLLLLHKKEDGIWSTDILKDQKEPKNKTFLRCEAKNYSGRFTCWWLTTISTDLTFSVKSSRGSSDPQGVTCGAATLSAERVRGDNKEYEYSVECQEDSACPAAEESLPIEVMVDAVHKLKYENYTSSFFIRDIIKPDPPKNLQLKPLKNSRQVEVSWEYPDTWSTPHSYFSLTFCVQVQGKSKREKKDRVFTDKTSATVICRKNASISVRAQDRYYSSSWSEWASVPCSGGGGSGGGGSGGGGSGGGGSGRAVPGGSSPAWTQCQQLSQKLCTLAWSAHPLVGHMDLREEGDEETTNDVPHIQCGDGCDPQGLRDNSQFCLQRIHQGLIFYEKLLGSDIFTGEPSLLPDSPVGQLHASLLGLSQLLQPEGHHWETQQIPSLSPSQPWQRLLLRFKILRSLQAFVAVAARVFAHGAATLSPDKTHTCPPCPAPEDEGGPSVFLFPPKPKDTLMISRTPEVTCVVVDVSHEDPEVKFNWYVDGVEVHNAKTKPREEQYNSTYRVVSVLTVLHQDWLNGKEYKCKVSNKALPAPIEKTISKAKGQPREPQVYVYPPSREEMTKNQVSLTCLVKGFYPSDIAVEWESNGQPENNYKTTPPVLDEDGSFALVSKLTVDKSRWQQGNVFSCSVMHEALHNHYTQKSLSLSPGK
B4: Fab-IL-23(F60A)-Fc-CD4 Ab (other)
light: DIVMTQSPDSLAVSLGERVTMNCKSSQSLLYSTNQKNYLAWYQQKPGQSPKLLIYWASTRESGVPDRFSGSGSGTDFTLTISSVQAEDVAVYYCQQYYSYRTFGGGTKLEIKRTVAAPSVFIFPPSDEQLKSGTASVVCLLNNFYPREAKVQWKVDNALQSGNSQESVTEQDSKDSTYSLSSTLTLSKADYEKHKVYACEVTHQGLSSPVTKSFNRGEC
heavy 1: QVQLQQSGPEVVKPGASVKMSCKASGYTFTSYVIHWVRQKPGQGLDWIGYINPYNDGTDYDEKFKGKATLTSDTSTSTAYMELSSLRSEDTAVYYCAREKDNYATGAWFAYWGQGTLVTVSSASTKGPSVFPLAPSSKSTSGGTAALGCLVKDYFPEPVTVSWNSGALTSGVHTFPAVLQSSGLYSLSSVVTVPSSSLGTQTYICNVNHKPSNTKVDKKVEPKSCDKTHTCPPCPAPEKKGGPSVFLFPPKPKDTLMISRTPEVTCVVVDVSHEDPEVKFNWYVDGVEVHNAKTKPREEQYNSTYRVVSVLTVLHQDWLNGKEYKCKVSNKALPAPIEKTISKAKGQPREPQVYVLPPSREEMTKNQVSLLCLVKGFYPSDIAVEWESNGQPENRYMTWPPVLDSDGSFFLYSKLTVDKSRWQQGNVFSCSVMHEALHNHYTQKSLSLSPGK
heavy 2: QVQLQQSGPEVVKPGASVKMSCKASGYTFTSYVIHWVRQKPGQGLDWIGYINPYNDGTDYDEKFKGKATLTSDTSTSTAYMELSSLRSEDTAVYYCAREKDNYATGAWFAYWGQGTLVTVSSASTKGPSVFPLAPSSKSTSGGTAALGCLVKDYFPEPVTVSWNSGALTSGVHTFPAVLQSSGLYSLSSVVTVPSSSLGTQTYICNVNHKPSNTKVDKKVEPKSCDKPGSGIWELKKDVYVVELDWYPDAPGEMVVLTCDTPEEDGITWTLDQSSEVLGSGKTLTIQVKEAGDAGQYTCHKGGEVLSHSLLLLHKKEDGIWSTDILKDQKEPKNKTFLRCEAKNYSGRFTCWWLTTISTDLTFSVKSSRGSSDPQGVTCGAATLSAERVRGDNKEYEYSVECQEDSACPAAEESLPIEVMVDAVHKLKYENYTSSFFIRDIIKPDPPKNLQLKPLKNSRQVEVSWEYPDTWSTPHSYFSLTFCVQVQGKSKREKKDRVFTDKTSATVICRKNASISVRAQDRYYSSSWSEWASVPCSGGGGSGGGGSGGGGSGGGGSGRAVPGGSSPAWTQCQQLSQKLCTLAWSAHPLVGHMDLREEGDEETTNDVPHIQCGDGCDPQGLRDNSQFCLQRIHQGLIFYEKLLGSDIFTGEPSLLPDSPVGQLHASLLGLSQLLQPEGHHWETQQIPSLSPSQPWQRLLLRFKILRSLQAFVAVAARVFAHGAATLSPDKTHTCPPCPAPEDEGGPSVFLFPPKPKDTLMISRTPEVTCVVVDVSHEDPEVKFNWYVDGVEVHNAKTKPREEQYNSTYRVVSVLTVLHQDWLNGKEYKCKVSNKALPAPIEKTISKAKGQPREPQVYVYPPSREEMTKNQVSLTCLVKGFYPSDIAVEWESNGQPENNYKTTPPVLDEDGSFALVSKLTVDKSRWQQGNVFSCSVMHEALHNHYTQKSLSLSPGK
notes: copies: 2 + 1 + 1

How the values were obtained:
[1] = target: T1, CD8 on CD8+ T cells (UniProt P01732 22-235); assay: FACS
T1 construct: whole, on cells

[2] = target: IL-23 receptor complex (IL-12Rβ1, IL-23R) (UniProt P42701 24-662; Q5VWK5 24-629, limits assumed); assay: cell-based or functional assay
Chain of IL-23 receptor complex (IL-12Rβ1, IL-23R) (Q5VWK5 24-629 limits assumed, chain 2 of 2, other chains not shown): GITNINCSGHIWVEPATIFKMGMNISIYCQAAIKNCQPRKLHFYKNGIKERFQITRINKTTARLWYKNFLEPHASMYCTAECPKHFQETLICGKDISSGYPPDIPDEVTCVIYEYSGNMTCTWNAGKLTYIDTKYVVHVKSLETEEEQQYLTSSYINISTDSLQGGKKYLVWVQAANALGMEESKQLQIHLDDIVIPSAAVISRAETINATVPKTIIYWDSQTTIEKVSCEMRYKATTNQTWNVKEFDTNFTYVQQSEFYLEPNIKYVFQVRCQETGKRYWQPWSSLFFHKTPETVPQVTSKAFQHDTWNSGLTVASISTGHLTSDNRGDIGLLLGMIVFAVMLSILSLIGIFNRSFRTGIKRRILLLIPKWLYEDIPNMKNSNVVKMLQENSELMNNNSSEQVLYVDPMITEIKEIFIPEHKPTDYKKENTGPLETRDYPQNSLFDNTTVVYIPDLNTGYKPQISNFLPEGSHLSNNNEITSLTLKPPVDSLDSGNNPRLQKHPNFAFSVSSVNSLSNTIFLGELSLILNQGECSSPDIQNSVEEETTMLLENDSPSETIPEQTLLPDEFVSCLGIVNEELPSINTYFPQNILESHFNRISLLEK

T1 sequence (P01732 22-235): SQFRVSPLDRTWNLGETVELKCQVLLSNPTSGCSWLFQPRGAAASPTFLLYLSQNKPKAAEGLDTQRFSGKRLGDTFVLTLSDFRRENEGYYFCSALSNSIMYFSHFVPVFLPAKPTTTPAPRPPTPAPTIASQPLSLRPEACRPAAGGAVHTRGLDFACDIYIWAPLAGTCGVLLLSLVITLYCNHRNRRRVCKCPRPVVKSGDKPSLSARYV

Binder | binding result [1] | IL-23 biological activity (IFN-γ release), CD4+ T cells [2] | IL-23 biological activity (IFN-γ release), CD8+ T cells [2]
B1 | no binding | 34% | 21%
B2 | no binding | 24% | 2%
B3 | no binding | 6.8% | 0%
B4 | no binding | 29% | 1.5%
